In article PMC6445466, “Structural determination of the complement inhibitory domain of Borrelia burgdorferi BBK32 provides insight into classical pathway complement evasion by Lyme disease spirochetes” (PLoS Pathogens, 2019):
Residue numbers refer to the chain shown, from its start. Numbers in names are those of the source.

Tests used:
[1] = target: T1, C1r_(CCP1-CCP2-SP-auto) (autolytic fragment of human C1r, Leu-300 to Asp-705) (human, UniProt P00736 300-705); assay: SPR; Biacore T200, 25 °C, BBK32(206-348) immobilised; C1r fragments as analytes, single-cycle as for C1r, 0.8 to 500 nM; 1:1 Langmuir fit; conditions: both partners purified
T1 construct: complement C1r, human, residues Leu-300 to Asp-705 by mass spectrometry: last six residues of CUB2 and all of CCP1-CCP2-SP; Runs as one 55 kDa band on non-reducing SDS-PAGE; also called 55 kDa band; autolytic C1r fragment; source: autolytic digestion of bought purified C1r (Complement Tech) overnight at 37 °C; used in the digestion mix (SEC) and purified (SPR)
T1 sequence: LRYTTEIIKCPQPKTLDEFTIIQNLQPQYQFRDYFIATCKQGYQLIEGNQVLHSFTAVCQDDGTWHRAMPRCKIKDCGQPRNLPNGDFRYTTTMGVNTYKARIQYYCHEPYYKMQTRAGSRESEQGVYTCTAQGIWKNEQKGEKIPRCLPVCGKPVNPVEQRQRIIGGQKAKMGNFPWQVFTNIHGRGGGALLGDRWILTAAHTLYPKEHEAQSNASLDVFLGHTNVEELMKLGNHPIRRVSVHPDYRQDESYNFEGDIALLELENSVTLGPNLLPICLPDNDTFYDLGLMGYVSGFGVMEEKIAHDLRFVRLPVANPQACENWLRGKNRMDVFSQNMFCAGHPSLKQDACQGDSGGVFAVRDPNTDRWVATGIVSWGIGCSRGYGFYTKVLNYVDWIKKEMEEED

[2] = target: T2, His-C1r-CCP2-SP (residues 376-705) (human, UniProt P00736 376-705); assay: as above; conditions: both partners purified
T2 construct: complement C1r, human, CCP2-SP domains, residues 376-705 as defined by UniProt P00736
T2 sequence: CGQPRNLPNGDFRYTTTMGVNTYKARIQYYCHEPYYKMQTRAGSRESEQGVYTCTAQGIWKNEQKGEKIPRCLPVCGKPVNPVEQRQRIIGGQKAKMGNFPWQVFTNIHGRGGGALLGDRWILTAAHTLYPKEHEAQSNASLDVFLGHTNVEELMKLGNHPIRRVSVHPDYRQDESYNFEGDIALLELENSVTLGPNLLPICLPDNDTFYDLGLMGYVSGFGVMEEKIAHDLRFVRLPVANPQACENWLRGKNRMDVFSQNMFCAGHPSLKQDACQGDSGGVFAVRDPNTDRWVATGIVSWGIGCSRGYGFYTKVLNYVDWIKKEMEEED

[3] = target: T3, human C1r, full-length enzyme (human, UniProt P00736 18-705); assay: SPR; Biacore T200, 25°C; borrelial protein immobilised by amine coupling; C1r as analyte, single-cycle kinetics, five-fold dilution series 1.6 to 1000 nM; HBS-T with 5 mM CaCl2; 1:1 kinetic fit; triplicate; conditions: both partners purified
T3 construct: complement C1r, human, 92 kDa, CUB1-EGF-CUB2-CCP1-CCP2-SP; bought as purified full-length enzyme; source: bought: Complement Technology (Tyler, TX), purified
T3 sequence: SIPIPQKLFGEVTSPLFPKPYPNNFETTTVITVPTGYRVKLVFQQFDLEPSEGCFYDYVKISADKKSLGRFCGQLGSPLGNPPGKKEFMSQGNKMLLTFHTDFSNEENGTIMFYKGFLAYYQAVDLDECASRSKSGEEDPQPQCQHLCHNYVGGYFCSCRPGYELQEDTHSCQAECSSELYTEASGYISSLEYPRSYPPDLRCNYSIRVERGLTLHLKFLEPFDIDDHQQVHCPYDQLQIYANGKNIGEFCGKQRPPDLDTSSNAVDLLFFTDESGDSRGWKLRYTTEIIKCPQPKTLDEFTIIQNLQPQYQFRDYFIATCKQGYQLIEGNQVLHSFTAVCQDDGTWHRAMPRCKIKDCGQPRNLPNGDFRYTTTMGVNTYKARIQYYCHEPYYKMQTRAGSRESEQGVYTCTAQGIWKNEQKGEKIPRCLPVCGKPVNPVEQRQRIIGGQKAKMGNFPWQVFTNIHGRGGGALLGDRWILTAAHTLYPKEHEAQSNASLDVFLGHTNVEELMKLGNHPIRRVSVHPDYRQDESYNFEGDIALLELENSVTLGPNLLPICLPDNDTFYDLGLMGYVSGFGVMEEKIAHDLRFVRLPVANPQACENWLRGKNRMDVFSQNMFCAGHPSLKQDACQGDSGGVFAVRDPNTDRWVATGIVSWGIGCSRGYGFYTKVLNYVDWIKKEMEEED

[4] = target: T4, recombinant His-C1r-CCP2-SP (residues 376-705) (human, UniProt P00736 376-705); assay: SPR; Biacore T200, 25°C; BBK32(206-348) immobilised by amine coupling; C1r fragments as analytes, single-cycle kinetics as for C1r, 0.8 to 500 nM; 1:1 kinetic fit; triplicate; conditions: both partners purified
T4 construct: complement C1r, human, CCP2-SP domains, residues 376-705 (domains as defined by UniProt P00736); also called rHIS-C1r-CCP2-SP
T4 sequence: T2 sequence

[5] = target: T5, C1r CCP1-CCP2-SP-auto, autolytic fragment of human C1r (Leu-300 to Asp-705) (human, UniProt P00736 300-705); assay: as above; conditions: both partners purified
T5 construct: complement C1r, human, residues Leu-300 to Asp-705 by mass spectrometry: last six residues of CUB2 and the whole of CCP1-CCP2-SP; Migrates as one 55 kDa band on non-reducing SDS-PAGE; also called 55 kDa fragment; source: autolytic digestion of bought C1r (Complement Tech) overnight at 37°C, purified
T5 sequence: T1 sequence

[6] = target: T6, human C1r, full-length enzyme (human, UniProt P00736 18-705); assay: cell-based or functional assay
T6 sequence: T3 sequence

human C1 complex = target: T7, human C1 complex (human, UniProt P02745 23-245; P02746 28-253; P02747 29-245); assay: SPR; Biacore T200, 25°C; borrelial protein immobilised by amine coupling (CMD200M chip); C1 as analyte, two-fold dilution series 0 to 150 nM, 2 min association, 3 min dissociation; HBS-T (20 mM HEPES pH 7.3, 140 mM NaCl, 0.005% Tween-20) with 5 mM CaCl2; 1:1 kinetic fit; triplicate; conditions: both partners purified
T7 construct: C1q subunit A, human; C1q subunit B, human; C1q subunit C, human; complement C1r, human, within the C1r2C1s2 heterotetramer; complement C1s, human, within the C1r2C1s2 heterotetramer; also called first component of complement; source: bought: Complement Technology (Tyler, TX), purified; copies: + + + 2 + 2

B1: BBK32_((206-348)) (residues 206-348, B. burgdorferi strain B31) (domain or fragment)
chain: SNRYQSYLEGVKYNVDSAIQTITKIYNTYTLFSTKLTQMYSTRLDNFAKAKAKEEAAKFTKEDLEKNFKTLLNYIQVSVKTAANFVYINDTHAKRKLENIEAEIKTLIAKIKEQSNLYEAYKAIVTSILLMRDSLKEVQGIID
notes: BBK32 of Borrelia burgdorferi strain B31, residues 206-348 (lacks six C-terminal residues relative to BBK32-C); The deposited model holds residues 209-348; also called BBK32-C_((206-348)); crystallization construct
For B1, the Kd [1] was 1.5 nM and the Kd [2] was 3.9 nM.

B2: BBK32(206-348) (residues 206-348, B. burgdorferi strain B31) (domain or fragment)
chain: B1 chain
notes: BBK32, Borrelia burgdorferi strain B31, residues 206-348 (lacks six C-terminal residues relative to BBK32-C); also called BBK32-C(206-348); source: recombinant, sub-cloned into pT7HMT, purified to homogeneity
B2 showed a Kd [3] of 0.75 nM, a koff [3] of 9.7e-06 s⁻¹ and a kon [3] of 13000 M⁻¹ s⁻¹. It also gave a koff [4] of 3.7e-05 s⁻¹, a kon [4] of 9400 M⁻¹ s⁻¹ and a koff [5] of 2.6e-05 s⁻¹. For the same binder, the kon [5] was 17000 M⁻¹ s⁻¹.

B3: BBK32-C (residues 206-354, B. burgdorferi strain B31) (domain or fragment)
chain: SNRYQSYLEGVKYNVDSAIQTITKIYNTYTLFSTKLTQMYSTRLDNFAKAKAKEEAAKFTKEDLEKNFKTLLNYIQVSVKTAANFVYINDTHAKRKLENIEAEIKTLIAKIKEQSNLYEAYKAIVTSILLMRDSLKEVQGIIDKNGVWY
With B3 the “IC50 of C3b deposition, classical pathway-specific ELISA with normal human serum” value [6] was 14 nM, the “IC50 of MAC deposition, classical pathway-specific ELISA with normal human serum” value [6] was 13 nM and the “IC50 of classical pathway hemolysis of sensitized sheep red blood cells by human serum” value [6] was 170 nM.

B4: BXK32-C (BBK32-C E308K-Q319K-E324Q) (domain or fragment, Borrelia burgdorferi strain B31, UniProt O50835 206-354, looked up)
chain: B3 chain with E103K, Q114K, E119Q
notes: BBK32, Borrelia burgdorferi strain B31, residues 206-354 (the limits of BBK32-C) with three residues changed to those of B. garinii BGD19; also called BBK32-E308K-Q319K-E324Q; chimeric BBK32-C; source: recombinant, E. coli codon-optimized synthetic DNA in pT7HMT, purified to homogeneity
With B4 the Kd [3] was 7.1 nM, the koff [3] was 0.00016 s⁻¹ and the kon [3] was 22000 M⁻¹ s⁻¹.

B5: BBK32-C (residues 206-354, B. burgdorferi strain B31) (domain or fragment)
chain: B3 chain
notes: BBK32, Borrelia burgdorferi sensu stricto strain B31, residues 206-354; also called BBK32(206-354); source: recombinant, sub-cloned into pT7HMT, purified to homogeneity
B5 was tested, and the Kd [3] was 5.1 nM, the koff [3] was 8.6e-05 s⁻¹ and the kon [3] was 17000 M⁻¹ s⁻¹.

B6: BGD19-C (residues 206-354, B. garinii strain IP90) (domain or fragment)
chain: SNRYQSYLEGVKYNVDSAIKTITKIYDTYTLFLTKLTQMYSTRLDNLAKAKAKEEAAKFTKEDLEKNFKTLLNYIQVSVKTATNFVYINDTHAKRKLENIETKIKTLIAKIKEKSNLYQAYKAIVRPILLMRDSLKEVQGAIDKNGIWY
B6 was tested, and the “IC50 of C3b deposition, classical pathway-specific ELISA with normal human serum” value [6] was 32 nM, the “IC50 of MAC deposition, classical pathway-specific ELISA with normal human serum” value [6] was 35 nM and the “IC50 of classical pathway hemolysis of sensitized sheep red blood cells by human serum; no saturable inhibition up to 1 uM” value [6] was about 7600 nM.

B7: BGD19-C (residues 206-354, B. garinii strain IP90) (domain or fragment)
chain: B6 chain
B7 was tested, and the Kd [3] was 5.3 nM, the koff [3] was 8.1e-05 s⁻¹ and the kon [3] was 15000 M⁻¹ s⁻¹. It also gave a Kd (human C1 complex) of 3 nM, a koff (human C1 complex) of 0.00035 s⁻¹ and a kon (human C1 complex) of 120000 M⁻¹ s⁻¹.
